Test results: article PMC5221584

Target: β:C12A yeast αβ-tubulin (yeast) (UniProt P09733)
Test: microtubule elongation rates by time-lapse DIC microscopy

## β:C12A yeast αβ-tubulin (from UniProt P09733 1-447; P02557 1-457) (complex)
  affinity of the interactions that drive elongation (extrapolation to the x-axis): 42 nM
  kon: 1.22e+07 M⁻¹ s⁻¹
